Assay results from US7166691B2, “Saposin C and receptors as targets for treatment of benign and malignant disorders” (priority 2002, dated 2007).

Assays:
prosaposin = settings: LNCaP and normal prostate stromal cells; 0.1, 1, 10 nM; 24 h
[1] = system: enzymes in the MAPK signaling transduction pathway (MEK1/2, p42/44, p90RSK); assay: Activation of MAPK signaling transduction pathway (phospho-specific Western); assay type: cell-based, human; settings: PC-3, DU-145, LNCaP
Experimental: (§1) Cells were grown to 80% confluency by incubating in their respective serum-free basal media for 18 h. For each cell line, tissue culture plates were pre-treated with a specific MEK1/2 inhibitor (U0126, Cat.# 9903, Cell Signaling Technology, Beverly, Mass.) at 10 μM for 1.5 h. Saposin C and TX14A were added at the following concentrations: 0.1, 1.0, and 10 nM. The cells were then incubated at 37° C. for 5 min, washed, and lysed on ice in RIPA buffer supplemented with protease inhibitors and 1 mM sodium orthovandate, as described in S. Koochekpour et al., 1999. Clarified cell lysates were subjected to Western analysis using phospho-specific antibodies against three enzymes in the MAPK Pathway: MEK1/2 (Ser217/22; Cat.# 9121; Cell Signaling Technology, Beverly, Mass.); p90RSK (p90^rsk, Ser380, Cat# 9341, Cell Signaling Technology); and p42/44 MAP Kinases (p44^MAPK, p42^MAPK; Thr202/Tyr204, Cat# 9102; Cell Signaling Technology). Primary antibodies against p42/44 MAP kinase (Cell Signaling Technology) or against tubulin (Cat# 12463, Santa Cruz Biotechnology, Santa Cruz, Calif.) were used as controls. To quantify the difference between the control and the various treatments, the autoradiograms were read on a densitometer, an Alpha Imager 2000 (Alpha Innotech Corp., San Leandro, Calif.).

[2] = system: normal prostate stromal cells; settings: NaSe 10 μM, 48 h
PC-3 cells = assay: Protection from NaSe-induced cell death (trypan blue exclusion); assay type: cell-based, human; settings: NaSe 10 μM, 48 h
DU-145 cells = assay: as above; assay type: cell-based, human; settings: NaSe 10 μM, 48 h
[3] = system: normal prostate epithelial cells; assay: as above; assay type: cell-based, human; settings: NaSe 10 μM, 48 h
[4] = system: prostate cancer cells and normal prostate cells; assay: Protection from NaSe-induced cell death, cell lines overall; assay type: cell-based, human; settings: dose dependent; NaSe 10 μM; 48 h
[5] = system: normal prostate epithelial cells; assay: Cell proliferation (living cells, trypan blue exclusion); assay type: cell-based, human; settings: 0.1, 1.0, 10 nM, 2 days
Experimental: To test the effects of saposin C and TX14A on cell proliferation, various cells were cultured as described in Example 1, incubated in only fresh media, or in media supplemented with saposin C or with TX14A at concentrations of 0.1, 1.0, and 10 nM. After incubation for 2 days, the number of living cells was determined by trypan blue exclusion method, as described above in Example 3. The results are shown in FIG. 3, in which each point represents the mean +/−SEM of three duplicate experiments.

DU-145 [6] = assay: Transwell cell migration assay; assay type: cell-based, human; settings: saposin C 0.1-10 nM, 16 h
Experimental: (§2) To test the effect of saposin C on prostatic cell migration and invasion, cell migration and invasion assays were performed using 24-well transwell units with 8-μm polycarbonate filters (Costar, purchased from Becton Dickinson, Bedford, Mass.), as described in S. Koochekpour et al., “Met and […] expression in human glioma,” Cancer Res., vol. 57, pp. 5391–5398 (1997). For invasion assays, transwell filters were coated with 20 μg GFR-Matrigel matrix (Becton Dickenson) in 100 μl of basal medium, and left to air dry overnight. To the lower compartment of each transwell unit, was added 400 μl of basal media supplemented with 0.5% FBS and 0.1% BSA. Saposin C was then added to the lower compartment in the following concentrations: 0 (control), 0.1 nM, 1 nM, and 10 nM.
(§3) Cultured cells were freshly harvested by trypsinization and counted. Approximately 5000 cells were resuspended in 100 μl of serum-free medium With 0.1% BSA, and were placed in the upper compartment of the transwell unit. After 16 h of incubation at 37° C., cells in both the upper and lower compartments were fixed in methanol and stained with Diff-Quick (Dade, Aguada, Puerto Rico). Non-migratory cells in the upper surface of the filter were removed by wiping with a cotton swab. Cells under the filter were counted. The results of cell migration are shown in FIG. 4A; and of cell invasion in FIG. 4B. Each bar represents the mean +/−SEM of three duplicate experiments, and samples from each experiment were counted at least three times.

LNCaP [7] = assay: Transwell cell migration assay; assay type: cell-based, human; settings: saposin C 0.1-10 nM, 16 h
Experimental: as §2, §3

PC-3 [8] = assay: Transwell cell migration assay; assay type: cell-based, human; settings: saposin C 0.1-10 nM in lower compartment, 16 h
Experimental: as §2, §3

[9] = system: normal primary prostate epithelial cells; assay: Transwell cell migration assay; assay type: cell-based, human; settings: presence or absence of saposin C
Experimental: as §2, §3

DU-145 [10] = assay: Transwell Matrigel cell invasion assay; assay type: cell-based, human; settings: saposin C 0.1-10 nM, 16 h
Experimental: as §2, §3

LNCaP [11] = assay: Transwell Matrigel cell invasion assay; assay type: cell-based, human; settings: saposin C 0.1-10 nM, 16 h
Experimental: as §2, §3

PC-3 [12] = assay: Transwell Matrigel cell invasion assay; assay type: cell-based, human; settings: saposin C 0.1-10 nM, 16 h
Experimental: as §2, §3

[13] = system: pro-cathepsin D and cathepsin D; assay: Western blot of culture supernatant for cathepsin D expression; assay type: cell-based, human; settings: LNCaP and normal prostate stromal cells; 0.1, 1, 10 nM; 24 h; compared to control (0 nM)
[14] = system: urokinase-type plasminogen activator (uPA); assay: Western blot of supernatant for uPA; assay type: cell-based, human; settings: normal prostate stromal cells, PC-3 and DU-145; 0.1, 1.0, 10 nM; 24 h
Experimental: (§4) To investigate the effect of saposin C on expression of both urokinase-type plasminogen activator (uPA) and the soluble uPA receptor (uPAR), normal prostate stromal cells and prostatic cancer cells (PC-3, DU-145, LNCaP) were cultured in media as described in Example 1. The cells were cultured in the preferred media up to 80% confluency, then washed twice with PBS, and incubated for 24 h at 37° C. in serum-free medium supplemented with either 0, 0.1, 1.0 or 10 nM saposin C. At the end of the incubation period, the cell-conditioned medium (Supernatant) was collected. The Supernatants were concentrated 5-fold using Centriprep-3 concentrator (Amikon, Beverley, Mass.), and stored frozen in −70° C. until use.
(§5) A Western blot analysis was performed (as in Examples 2 and 6) using commercially available anti-uPA and anti-uPAR antibodies (Cat# 389 and Cat# 399R, respectively; American Diagnostica Inc., Greenwich, Conn.).

[15] = system: soluble uPA receptor (uPAR); assay: Western blot of supernatant for soluble uPAR; assay type: cell-based, human; settings: normal prostate stromal cells, PC-3 and DU-145; 0.1, 1.0, 10 nM; 24 h
Experimental: as §4, §5

PSA = assay: Western blot of supernatant for PSA expression in LNCaP cells; assay type: cell-based, human; settings: 24 h, at concentrations as low as 0.1 nM
Experimental: To investigate the effect of saposin C on the expression of PSA in LNCaP cells, cells were cultured in the preferred media up to 80% confluency, and then washed twice with PBS. The cells were incubated in serum-free medium supplemented with either testosterone (T), dihydrotestosterone (DHT), saposin C or TX14A at the following concentrations: 0, 0.1, 1 or 10 nM. […] The supernatants were concentrated 5-fold using Centriprep-3 concentrator (Amikon, Beverley, Mass.) and stored frozen in −70° C. until use. A Western blot analysis was performed (as in Examples 2 and 6) using commercially available anti-PSA (Santa Cruz Biotechnology, Santa Cruz, Calif.).

p42/44 MAP Kinases = assay: Phospho-specific Western, p42/44 MAP kinases; assay type: cell-based, human
Experimental: as §1

p90RSK = assay: Phospho-specific Western, p90RSK; assay type: cell-based, human
Experimental: as §1

MEK1/2 = assay: Phospho-specific Western, MEK1/2; assay type: cell-based, human; settings: normal prostate epithelial cells; 0.1, 1.0, 10 nM
Experimental: as §1

[16] = system: breast cancer cells (MCF-7); assay: Transwell cell migration assay; assay type: cell-based, human; settings: saposin C 0.1-10 nM
Experimental: as §2, §3
(§6) To test the effect of saposin C on migration and invasion of non-prostatic cancer cells, assays using human breast cancer cell line (MCF-7), colon cancer cell line (LoVo), and lung cancer cell line (H1299) were performed in 24-well transwell units with polycarbonate filters as described above in Example 5.

[17] = system: colon cancer cells (LoVo); assay: Transwell cell migration assay; assay type: cell-based, human; settings: saposin C 0.1-10 nM
Experimental: as §2, §3, §6

[18] = system: lung cancer cells (H1299); assay: Transwell cell migration assay; assay type: cell-based, human; settings: saposin C 0.1-10 nM
Experimental: as §2, §3, §6

[19] = system: breast cancer cells (MCF-7); assay: Transwell Matrigel cell invasion assay; assay type: cell-based, human; settings: saposin C 0.1-10 nM
Experimental: as §2, §3, §6

[20] = system: colon cancer cells (LoVo); assay: Transwell Matrigel cell invasion assay; assay type: cell-based, human; settings: saposin C 0.1-10 nM
Experimental: as §2, §3, §6

[21] = system: lung cancer cells (H1299); assay: Transwell Matrigel cell invasion assay; assay type: cell-based, human; settings: saposin C 0.1-10 nM
Experimental: as §2, §3, §6

[22] = system: prostate (PC-3, DU-145, LNCaP), breast (MCF-7), lung (H1299), and colon (LoVo) cancer cells; assay: Cytotoxicity / cell number, all tested cancer cell lines incl. competitive inhibition; assay type: cell-based, human
Experimental: The conjugate of saporin and TX14A was made by special order by Advanced Targeting Systems with a 1:1 molar ratio between the peptide and saporin. Blank-SAP, a non-targeted saporin conjugate, was purchased as a control (ATS, Catalogue# IT-21). Exponentially growing cells were trypsinized and cultured in their complete culture media (1000/well in 96-well plates) as described in Example 1. After 1 day of incubation at 37° C., the culture media were supplemented with either TX14A, saporin, TX14A-saporin (conjugate), Saposin C, TX14A-saporin plus TX14A, or TX14A-Saporin plus Saposin C at the following concentrations: 0, 0.1, 1, 10, 100, 1000 nM. Three days after treatment, cell death was monitored with a Promega (Madison, Wis.) cell titer cytotoxicity kit. Cell counts were normalized to the media controls.

[23] = system: non-prostatic cancer cells (MCF-7, LoVo, H1299); assay: Transwell migration and invasion, all cells tested; assay type: cell-based, human
Experimental: as §2
as §3, with “Non-migratory cells in the upper surface of the filter were removed by wiping with a cotton swab.” left out, “The results of cell migration are shown in FIG. 4A; and of cell invasion in FIG. 4B.” left out, “times. […]” for “times.”

[24] = normal prostate epithelial cells, decreased at 0.1 nM, increased at 1.0 nM, decreased at 10 nM

C[C@]12CCC(=O)C[C@@H]1CC[C@@H]1[C@@H]2CC[C@]2(C)[C@@H](O)CC[C@@H]12 [DHT, dihydrotestosterone]
expression of prosaposin (prosaposin): stimulated the expression

N#CC(=C(/N)Sc1ccccc1N)/C(C#N)=C(\N)Sc1ccccc1N [U0126, reference compound]
inhibition of saposin C / TX14A activation of MAPK pathway enzymes ([1]; U0126 10 μM pre-treatment 1.5 h, stromal): substantially inhibited

C[C@]12CC[C@H]3[C@@H](CCC4=CC(=O)CC[C@@]43C)[C@@H]1CC[C@@H]2O [T, testosterone]
expression of prosaposin (prosaposin): stimulated the expression

O=[Se]([O-])[O-].[Na+].[Na+] [NaSe, sodium selenium]
toxic effect of NaSe [2]: resistant

B1: saposin C: Human saposin C, about 8–13 kDa protein proteolytically generated from prosaposin; obtained from Professor K. Sandoff (protein, UniProt P07602 311-390, looked up)
Saposin-C: SDVYCEVCEFLVKEVTKLIDNNKTEKEILDAFDKMCSKLPKSLSEECQEVVDTYGSSILSILLEEVSPELVCSMLHLCSG
modifications: Saposin-C
notes: Human saposin C, about 8–13 kDa protein proteolytically generated from prosaposin; obtained from Professor K. Sandoff
protective effect, difference in the percent cell death with and without saposin C (PC-3 cells): 55%
protective effect, difference in the percent cell death with and without saposin C (DU-145 cells): 50%
protection from cell death [3]: Neither Saposin C nor TX14A protected
degree of cell death in the presence of NaSe [4]: decreased the degree of cell death
effect on growth [5]: did not show any effect
stimulation of migration (DU-145 [6]): 140%
stimulation of migration (LNCaP [7]): 50%
stimulation of migration (PC-3 [8]): more than 300%
migration through the filter [9]: neither migrated through the filter
stimulation of invasion (DU-145 [10]): 70%
stimulation of invasion (LNCaP [11]): 48%
stimulation of invasion (PC-3 [12]): 100%
expression of pro-cathepsin D (50 kDa band) and active mature cathepsin D (36 kDa band) [13]: stimulate expression
extracellular level of uPA [14]: increased
extracellular level of uPAR [15]: increased
extracellular level of PSA (PSA): significantly increased
activation of the enzymes in the MAPK signaling transduction pathway ([1]; normal prostate stromal cells, nanomolar concentrations, 5 min): activated
pattern of p42/44 phosphorylation activity (p42/44 MAP Kinases; [24]): biphasic pattern
increase in p42/44 phosphorylation as compared to the control (p42/44 MAP Kinases; normal prostate stromal cells, densitometry): 15 fold
pattern of p90RSK phosphorylation activity (p90RSK; [24]): biphasic pattern
pattern of p90RSK activity (p90RSK; normal prostate stromal cells): biphasic pattern
expression of MEK1/2 (phospho-MEK1/2 Western) (MEK1/2): dose-dependent increase
increase of migration [16]: 12–59%
increase of migration [17]: 22–59%
increase of migration [18]: 44–460%
increase of invasion [19]: 22–36%
increase of invasion [20]: 16–37%
increase of invasion [21]: 19–195%
cell proliferation of all cancer cell lines ([22]; 0.1-1000 nM, three days, much greater effect in PC-3 and DU-145): increased
effect on TX14A-saporin cytotoxicity in competitive inhibition assays ([22]; equimolar mixture with TX14A-saporin, simultaneous treatment): inhibited in a dose dependent manner
concentration at which the highest migration and invasion was seen [23]: 1 nM
